Experimental data from paper PMC8307404, “Crystal Structure-Guided Design of Bisubstrate Inhibitors and Photoluminescent Probes for Protein Kinases of the PIM Family” (Molecules, 2021).
Where two headings read alike, the source gives them in different places. Square brackets hold non-standard residues; d marks the D form. Peptide text beside a SMILES is read from it. * marks the point of attachment. X3 = O=C(CCCCCNCc1nc2c(sc3cc(Br)cnc32)c(=O)[nH]1)*

Key:
PKAcα = molecular target: T1, PKAcα (Homo sapiens, UniProt P17612); assay: Binding/displacement assay with FA or TGLI readout
T1 construct: purchased Biaffin GmbH & Co KG (Kassel, Germany)
Description: The affinities of the compounds toward the PIM family PKs were determined in a binding/displacement assay with measurement of fluorescence anisotropy (FA) and time-gated luminescence intensity (TGLI) (Table 2). For the initial assessment of the selectivity of compounds, PKAcα was used as the reference basophilic kinase.
Optical FA measurement modules for 5-TAMRA-labeled compounds (ex. 540(20) nm, em. 590(20) nm and 590(20) nm), for Cy5-labeled compounds (ex. 590(50) nm, em. 675(50) nm and 675(50) nm), and optical TGLI measurement modules for ARC-1451 (ex. 330(60) nm, em. 590(50) nm), for ARC-1188 (ex. 330(60) nm, em. 675(50) nm) were used for assays with PHERAstar microplate reader (BMG Labtech; Ortenberg, Germany). TGLI measurements were performed with a delay time of 50 μs and integration of the signal for 150 μs. In each measurement, emission from 200 flashes of excitation radiation was collected. The measurement solutions (20 µL volumes) were prepared in black 384-well low-binding surface microtiter plates (Corning #4514; Kennebunk, ME, USA) and incubated for 20 min at 30 °C before the measurements. The assay buffer contained HEPES hemisodium salt (pH 7.4, 50 mM), NaCl (150 mM), dithiothreitol (5 mM), bovine serum albumin (0.5 mg/mL), and Tween-20 (0.005%). GraphPad Prism v. 5.04 (GraphPad Software, Inc.) was used for data analysis with FA [32] or TGLI [33] readouts. Representative titration curves can be found in Supplementary Figure S7.

ERK8 = molecular target: T2, ERK8 (Homo sapiens, UniProt Q8TD08); assay: Kinase profiling (radiometric filter-binding); type: biochemical; details: ERK8, 1 µM inhibitor; read-out: Residual activity, %
T2 sequence (Q8TD08 1-544): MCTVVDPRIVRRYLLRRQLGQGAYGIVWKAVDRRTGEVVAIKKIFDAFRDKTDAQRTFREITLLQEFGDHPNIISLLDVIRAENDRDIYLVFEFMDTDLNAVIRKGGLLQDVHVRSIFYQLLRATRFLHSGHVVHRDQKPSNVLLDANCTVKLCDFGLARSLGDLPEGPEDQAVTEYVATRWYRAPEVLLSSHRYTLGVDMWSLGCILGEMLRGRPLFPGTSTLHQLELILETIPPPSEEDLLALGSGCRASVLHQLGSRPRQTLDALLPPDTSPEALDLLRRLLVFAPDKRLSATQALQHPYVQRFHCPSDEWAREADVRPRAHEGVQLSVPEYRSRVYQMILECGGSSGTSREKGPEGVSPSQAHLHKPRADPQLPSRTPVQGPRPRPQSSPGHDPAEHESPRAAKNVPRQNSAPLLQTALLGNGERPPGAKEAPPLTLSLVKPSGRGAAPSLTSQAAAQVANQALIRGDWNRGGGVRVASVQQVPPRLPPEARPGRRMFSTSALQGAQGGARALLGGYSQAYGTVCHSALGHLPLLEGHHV
Description: (§1) Kinase selectivity profiling was performed using the commercial service provided by the MRC PPU International Centre for Kinase Profiling (Dundee, UK) using a radiometric filter-binding assay. Kinases used for analysis were of human origin. The ATP concentration applied for inhibition measurements was at or below the ATP KM value of the particular PK. ARC-3125 and ARC-3126 were screened against 139 PKs, whereas compounds 1, 2, and 8 were screened against 140 PKs. The final total concentration of inhibitors in the selectivity panel was 1 µM. Residual activities were expressed as the percentage of retained activity compared to the control without inhibitor.

HER4 = HER4 (Homo sapiens, UniProt Q15303); assay: Kinase profiling (radiometric filter-binding); type: biochemical; details: HER4, 1 µM inhibitor; read-out: Residual activity, %
Chain of HER4 (Q15303 26-1308): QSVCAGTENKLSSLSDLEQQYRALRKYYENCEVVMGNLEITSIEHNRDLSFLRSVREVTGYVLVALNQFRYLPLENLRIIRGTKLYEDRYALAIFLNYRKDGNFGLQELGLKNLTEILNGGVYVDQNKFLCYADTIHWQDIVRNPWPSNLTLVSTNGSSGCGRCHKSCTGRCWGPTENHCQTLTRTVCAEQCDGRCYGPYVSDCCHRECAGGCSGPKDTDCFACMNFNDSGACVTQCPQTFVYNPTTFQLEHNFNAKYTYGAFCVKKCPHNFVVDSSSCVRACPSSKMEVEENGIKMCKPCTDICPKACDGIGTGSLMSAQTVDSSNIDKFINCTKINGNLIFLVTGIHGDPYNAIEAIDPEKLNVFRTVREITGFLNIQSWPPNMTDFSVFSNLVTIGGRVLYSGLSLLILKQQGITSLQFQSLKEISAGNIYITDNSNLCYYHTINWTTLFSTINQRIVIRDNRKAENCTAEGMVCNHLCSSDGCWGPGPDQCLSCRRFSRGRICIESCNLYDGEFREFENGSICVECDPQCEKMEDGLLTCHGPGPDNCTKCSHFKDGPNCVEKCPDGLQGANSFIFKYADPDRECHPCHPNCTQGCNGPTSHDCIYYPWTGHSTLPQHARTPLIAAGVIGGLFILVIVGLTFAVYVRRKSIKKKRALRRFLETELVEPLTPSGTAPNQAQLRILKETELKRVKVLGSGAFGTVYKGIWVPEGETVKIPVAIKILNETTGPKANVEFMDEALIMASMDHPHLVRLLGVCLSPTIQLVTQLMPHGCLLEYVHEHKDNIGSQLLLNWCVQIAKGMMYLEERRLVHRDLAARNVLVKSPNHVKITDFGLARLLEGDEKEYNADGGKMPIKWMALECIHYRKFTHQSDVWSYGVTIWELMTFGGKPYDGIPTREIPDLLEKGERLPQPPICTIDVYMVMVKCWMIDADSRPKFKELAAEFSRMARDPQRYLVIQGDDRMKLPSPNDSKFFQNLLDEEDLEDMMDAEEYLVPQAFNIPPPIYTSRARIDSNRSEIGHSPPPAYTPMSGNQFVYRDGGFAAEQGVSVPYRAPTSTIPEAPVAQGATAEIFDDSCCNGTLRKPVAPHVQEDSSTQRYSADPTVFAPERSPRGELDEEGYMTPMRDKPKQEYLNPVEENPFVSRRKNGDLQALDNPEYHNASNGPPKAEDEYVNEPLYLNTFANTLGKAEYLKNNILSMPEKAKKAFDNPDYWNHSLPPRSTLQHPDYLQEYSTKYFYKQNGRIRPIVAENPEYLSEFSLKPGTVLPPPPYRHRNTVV
Description: as §1

IRR = IRR (Homo sapiens, UniProt P14616); assay: Kinase profiling (radiometric filter-binding); type: biochemical; details: 1 µM inhibitor, read-out: Residual activity, %
Description: as §1

JNK2 = JNK2 (Homo sapiens, UniProt P45984); assay: Kinase profiling (radiometric filter-binding); type: biochemical; details: JNK2, 1 µM inhibitor; read-out: Residual activity, %
Chain of JNK2 (P45984 whole entry): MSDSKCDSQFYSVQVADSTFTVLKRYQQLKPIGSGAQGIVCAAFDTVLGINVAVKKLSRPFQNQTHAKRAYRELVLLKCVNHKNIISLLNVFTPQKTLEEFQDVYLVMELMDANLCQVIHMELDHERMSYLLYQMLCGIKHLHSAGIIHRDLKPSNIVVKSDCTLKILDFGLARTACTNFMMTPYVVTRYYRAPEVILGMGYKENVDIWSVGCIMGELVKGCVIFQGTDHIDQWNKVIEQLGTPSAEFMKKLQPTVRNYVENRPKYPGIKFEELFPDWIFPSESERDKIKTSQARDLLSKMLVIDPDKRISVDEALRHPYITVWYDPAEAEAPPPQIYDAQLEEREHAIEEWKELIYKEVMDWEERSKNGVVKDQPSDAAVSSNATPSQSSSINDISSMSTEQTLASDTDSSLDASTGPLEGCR
Description: as §1

MEKK1 = MEKK1 (Homo sapiens, UniProt Q13233); assay: Kinase profiling (radiometric filter-binding); type: biochemical; details: MEKK1, 1 µM inhibitor; read-out: Residual activity, %
Chain of MEKK1 (Q13233 whole entry): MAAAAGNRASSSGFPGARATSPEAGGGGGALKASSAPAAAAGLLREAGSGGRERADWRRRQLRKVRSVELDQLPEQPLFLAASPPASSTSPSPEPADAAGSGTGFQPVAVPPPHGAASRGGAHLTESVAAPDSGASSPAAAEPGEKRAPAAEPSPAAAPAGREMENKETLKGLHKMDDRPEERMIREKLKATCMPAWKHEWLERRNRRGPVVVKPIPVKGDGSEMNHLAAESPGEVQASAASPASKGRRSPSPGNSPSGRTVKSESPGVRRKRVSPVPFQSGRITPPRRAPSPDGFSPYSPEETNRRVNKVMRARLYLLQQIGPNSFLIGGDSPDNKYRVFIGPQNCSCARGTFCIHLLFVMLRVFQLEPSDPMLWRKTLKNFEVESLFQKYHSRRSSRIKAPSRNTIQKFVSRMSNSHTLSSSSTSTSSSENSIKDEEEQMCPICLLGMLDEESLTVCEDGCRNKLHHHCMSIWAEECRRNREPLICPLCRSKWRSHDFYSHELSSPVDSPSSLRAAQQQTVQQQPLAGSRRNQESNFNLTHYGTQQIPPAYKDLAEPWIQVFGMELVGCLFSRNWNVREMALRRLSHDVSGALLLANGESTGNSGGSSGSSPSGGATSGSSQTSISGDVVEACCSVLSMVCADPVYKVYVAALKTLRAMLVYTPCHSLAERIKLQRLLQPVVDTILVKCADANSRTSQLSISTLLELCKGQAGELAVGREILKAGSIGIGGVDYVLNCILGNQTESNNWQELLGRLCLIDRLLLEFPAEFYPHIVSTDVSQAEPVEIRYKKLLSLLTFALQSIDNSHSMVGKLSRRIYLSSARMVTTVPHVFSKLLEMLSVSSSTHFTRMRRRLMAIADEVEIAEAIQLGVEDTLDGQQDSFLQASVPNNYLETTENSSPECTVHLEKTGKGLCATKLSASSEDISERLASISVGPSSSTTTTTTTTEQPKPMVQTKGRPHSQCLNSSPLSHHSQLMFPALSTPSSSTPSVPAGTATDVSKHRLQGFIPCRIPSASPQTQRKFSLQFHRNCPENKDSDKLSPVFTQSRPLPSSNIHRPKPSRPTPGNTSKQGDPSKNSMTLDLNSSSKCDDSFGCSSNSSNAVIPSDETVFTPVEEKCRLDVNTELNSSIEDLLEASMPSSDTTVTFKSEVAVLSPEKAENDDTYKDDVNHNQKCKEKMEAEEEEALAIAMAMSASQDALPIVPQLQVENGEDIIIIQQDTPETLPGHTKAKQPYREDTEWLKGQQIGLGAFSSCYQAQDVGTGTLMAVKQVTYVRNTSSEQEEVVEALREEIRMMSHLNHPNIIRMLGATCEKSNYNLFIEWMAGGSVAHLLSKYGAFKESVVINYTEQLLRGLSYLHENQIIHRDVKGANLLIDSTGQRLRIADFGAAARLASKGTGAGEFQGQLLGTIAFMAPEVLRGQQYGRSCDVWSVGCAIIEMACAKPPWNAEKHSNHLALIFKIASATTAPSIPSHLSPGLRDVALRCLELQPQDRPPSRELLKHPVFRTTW
Description: as §1

MNK1 = MNK1 (Homo sapiens, UniProt Q9BUB5); assay: Kinase profiling (radiometric filter-binding); type: biochemical; details: MNK1, 1 µM inhibitor; read-out: Residual activity, %
Chain of MNK1 (Q9BUB5 whole entry): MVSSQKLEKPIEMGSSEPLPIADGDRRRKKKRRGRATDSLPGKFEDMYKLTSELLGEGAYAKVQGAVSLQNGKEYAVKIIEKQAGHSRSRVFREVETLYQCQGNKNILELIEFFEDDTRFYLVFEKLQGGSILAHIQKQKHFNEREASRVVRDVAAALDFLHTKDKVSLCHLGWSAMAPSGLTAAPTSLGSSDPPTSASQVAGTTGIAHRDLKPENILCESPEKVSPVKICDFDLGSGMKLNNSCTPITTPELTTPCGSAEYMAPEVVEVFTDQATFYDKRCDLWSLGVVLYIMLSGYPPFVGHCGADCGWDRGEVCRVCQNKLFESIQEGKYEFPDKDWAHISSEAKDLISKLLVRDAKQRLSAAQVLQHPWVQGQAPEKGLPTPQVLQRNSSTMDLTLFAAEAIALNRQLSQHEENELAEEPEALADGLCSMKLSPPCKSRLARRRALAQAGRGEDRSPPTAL
Description: as §1

MST3 = MST3 (Homo sapiens, UniProt Q9Y6E0); assay: Kinase profiling (radiometric filter-binding); type: biochemical; details: MST3, 1 µM inhibitor; read-out: Residual activity, %
Chain of MST3 (Q9Y6E0 whole entry): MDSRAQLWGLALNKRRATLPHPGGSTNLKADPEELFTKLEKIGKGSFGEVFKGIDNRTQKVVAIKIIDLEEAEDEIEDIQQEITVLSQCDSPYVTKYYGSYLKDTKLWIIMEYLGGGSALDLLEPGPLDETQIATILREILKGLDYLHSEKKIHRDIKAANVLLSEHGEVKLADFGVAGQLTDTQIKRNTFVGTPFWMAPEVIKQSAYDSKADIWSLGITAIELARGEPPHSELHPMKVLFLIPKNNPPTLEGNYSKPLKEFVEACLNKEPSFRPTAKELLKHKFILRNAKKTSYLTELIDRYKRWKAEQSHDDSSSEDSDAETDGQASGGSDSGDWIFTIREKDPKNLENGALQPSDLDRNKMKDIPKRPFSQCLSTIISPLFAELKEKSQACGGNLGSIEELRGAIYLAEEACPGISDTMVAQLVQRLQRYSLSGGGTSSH
Description: as §1

PAK6 = PAK6 (Homo sapiens, UniProt Q9NQU5); assay: Kinase profiling (radiometric filter-binding); type: biochemical; details: PAK6, 1 µM inhibitor; read-out: Residual activity, %
Chain of PAK6 (Q9NQU5 whole entry): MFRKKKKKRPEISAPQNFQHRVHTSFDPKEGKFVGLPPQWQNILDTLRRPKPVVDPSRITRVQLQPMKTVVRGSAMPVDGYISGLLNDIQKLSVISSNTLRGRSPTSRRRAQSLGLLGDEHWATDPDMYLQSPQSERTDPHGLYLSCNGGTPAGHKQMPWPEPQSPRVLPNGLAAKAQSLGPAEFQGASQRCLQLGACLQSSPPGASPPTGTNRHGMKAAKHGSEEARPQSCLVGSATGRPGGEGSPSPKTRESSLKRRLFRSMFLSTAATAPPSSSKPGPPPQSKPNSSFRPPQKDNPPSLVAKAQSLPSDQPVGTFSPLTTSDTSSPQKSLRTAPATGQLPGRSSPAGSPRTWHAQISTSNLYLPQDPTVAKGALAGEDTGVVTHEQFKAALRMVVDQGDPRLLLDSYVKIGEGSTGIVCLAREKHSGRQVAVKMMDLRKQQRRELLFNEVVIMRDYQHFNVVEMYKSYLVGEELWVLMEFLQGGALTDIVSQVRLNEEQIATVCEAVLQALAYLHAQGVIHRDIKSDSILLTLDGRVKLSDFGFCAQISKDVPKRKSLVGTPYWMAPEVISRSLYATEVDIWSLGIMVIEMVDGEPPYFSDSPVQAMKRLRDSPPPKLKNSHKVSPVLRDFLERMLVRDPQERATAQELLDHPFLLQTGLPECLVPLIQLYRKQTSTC
Description: as §1

AMPK = assay: Kinase profiling (radiometric filter-binding); type: biochemical, human; details: 1 µM inhibitor
Description: as §1

PINK = assay: Kinase profiling (radiometric filter-binding); type: biochemical, human; details: 1 µM inhibitor
Description: as §1

p38 MAPK = assay: Kinase profiling (radiometric filter-binding); type: biochemical, human; details: 1 µM inhibitor
Description: as §1

[1] = TGLI or FA readout, mean ± SEM, N = 2, read-out: KD, nM (PKAcα)
[2] = fourth of four lines (Greek letter lost)
[3] = third of four lines (Greek letter lost)

Structure (SMILES) | Kd (PKAcα; [1]) [nM] | remaining activity at 1 µM (ERK8) [%] | remaining activity at 1 µM (HER4) [%] | remaining activity at 1 µM (IRR) [%] | remaining activity at 1 µM (JNK2) [%] | remaining activity at 1 µM (MEKK1) [%] | remaining activity at 1 µM (MNK1) [%] | remaining activity at 1 µM (MST3) [%] | remaining activity at 1 µM (PAK6) [%] | Residual activity, % (AMPK) [%] | Residual activity, % (PINK) [%] | Residual activity, % (p38 MAPK; [2]) [%] | Residual activity, % (p38 MAPK; [3]) [%] | Kd (PKAcα; read-out: KD toward PKAcα) [nM]
N=C(N)NCCC[C@@H](NC(=O)CNC(=O)[C@@H](CCCNC(=N)N)NC(=O)[C@@H](CCCNC(=N)N)NC(=O)Cn1cc(CNCc2nc3c(sc4ccc(Br)cc43)c(=O)[nH]2)nn1)C(=O)N[C@H](CCCCN)C(N)=O [Compound 3, BBTP-Amt-(D-Arg)2-Gly-D-Arg-D-Lys-NH2] | 1500 ± 266 | 83 ± 2 | 105 ± 8 | 110 ± 1 | 129 ± 21 | 98 ± 2 | 89 ± 8 | 98 ± 1 | 86 ± 8 | 47 ± 6 | 92 ± 0 | 111 ± 1 | 108 ± 8 | 
N=C(N)NCCC[C@@H](NC(=O)CCCCCNCc1nc2c(sc3cc(Br)cnc32)c(=O)[nH]1)C(=O)N[C@H](CCCNC(=N)N)C(=O)N[C@H](CCCNC(=N)N)C(=O)N[C@H](CCCNC(=N)N)C(=O)N[C@H](CCCNC(=N)N)C(=O)N[C@H](CCCNC(=N)N)C(=O)N[C@H](CCCCN)C(N)=O [ARC-3126, BPTP-Ahx-(D-Arg)6-D-Lys-NH2] (X3-[dR][dR][dR][dR][dR][dR][dK]-NH2) | > 18500 | 49 ± 30 | 110 ± 5 | 75 ± 4 | 38 ± 13 | 103 ± 2 | 89 ± 5 | 102 ± 5 | 103 ± 5 | 38 ± 4 |  | 129 ± 10 | 111 ± 4 | > 18000
CN(C)c1ccc2c(c1)Oc1cc(N(C)C)ccc1C21OC(=O)c2cc(C(=O)NCCCC[C@@H](NC(=O)[C@@H](CCCNC(=N)N)NC(=O)CNC(=O)[C@@H](CCCNC(=N)N)NC(=O)[C@@H](CCCNC(=N)N)NC(=O)CCCCc3cn(Cc4nc5c(sc6ccc(Br)cc65)c(=O)[nH]4)nn3)C(N)=O)ccc21 [Compound 8, BBTP-Tap-(D-Arg)2-Gly-D-Arg-[D-Lys(5-TAMRA)]-NH2] | > 1020 |  |  |  |  |  |  |  |  |  |  |  |  | 
N=C(N)NCCC[C@@H](NC(=O)CCCCCNC(=O)Cn1cnc2c(I)c(I)c(I)c(I)c21)C(=O)N[C@H](CCCNC(=N)N)C(=O)N[C@H](CCCNC(=N)N)C(=O)N[C@H](CCCNC(=N)N)C(=O)N[C@H](CCCNC(=N)N)C(=O)N[C@H](CCCNC(=N)N)C(=O)N[C@H](CCCCN)C(N)=O [ARC-3125, TIBI-CH2-C(=O)-Ahx-(D-Arg)6-D-Lys-NH2] |  | 18 ± 9 | 120 ± 9 | 20 ± 34 | 123 ± 7 | 77 ± 1 | 67 ± 4 | 51 ± 24 | 34 ± 11 |  |  |  |  | 
N=C(N)NCCC[C@@H](NC(=O)CNC(=O)[C@@H](CCCNC(=N)N)NC(=O)[C@@H](CCCNC(=N)N)NC(=O)CCCCCCCNCc1nc2c(sc3cc(Br)cnc32)c(=O)[nH]1)C(=O)N[C@H](CCCCN)C(N)=O [Compound 1, BPTP-Aoc-(D-Arg)2-Gly-D-Arg-D-Lys-NH2] | 2250 ± 411 | 109 ± 8 | 111 ± 13 | 99 ± 2 | 107 ± 1 | 108 ± 16 | 102 ± 3 | 104 ± 3 | 119 ± 8 | 92 ± 9 | 116 ± 5 | 116 ± 6 | 109 ± 7 | 
N=C(N)NCCC[C@@H](NC(=O)CNC(=O)[C@@H](CCCNC(=N)N)NC(=O)[C@@H](CCCNC(=N)N)NC(=O)CCCCCCCNCc1nc2c(sc3ccc(Br)cc32)c(=O)[nH]1)C(=O)N[C@H](CCCCN)C(N)=O [Compound 2, BBTP-Aoc-(D-Arg)2-Gly-D-Arg-D-Lys-NH2] | 853 ± 28 | 78 ± 17 | 114 ± 15 | 99 ± 5 | 91 ± 7 | 119 ± 5 | 66 ± 7 | 112 ± 8 | 110 ± 15 | 91 ± 4 | 121 ± 17 | 115 ± 0 | 117 ± 1 | 
